Patent publication US20200199204A1 (UNITED STATES OF AMERICA AS REPRESENTED BY THE SECRETARY …, published 2020)

B1: CAP256-VRC26.03 (antibody, V domains shown)
VH: EVQLVESGGGVVQPGKSLRLSCAASRFSFNRYGMHWVRQAPGKGLEWVAAISYDGTDKYHADKVWGRFTISRDNSKNTLYLQMNSLRAEDTALYYCAKDLREDECEEWWSDYYDFGKQLPCRKSRGVAGIFDGWGQGTMVTVSS
VL: QSVLTQPPSVSAAPGQKVTISCSGSSSNIGNNFVSWYQQRPGTAPKILIYENNKRPSETPDRFSGSKSGTSATLAITGLQTADEAEYYCATWSASLSSARVFGTGTRITVLG
B2: CAP256-VRC26.02 (antibody, V domains shown)
VH: EVQLVESGGGVVQPGRSLRLSCAASQFSFGNYGMHWVRQAPGKGLEWVAAISFAGTKTNYADSVKGRFTISRDNSKNTVYLQMNSLRAEDTALYFCAKDIREYECEYWTSDYYDFGRPQPCIDSRGVVGTFDVWGQGTMVTVSS
VL: QSVLTQPPSVSAAPGQKVTISCSGSNSNIGNKDVSWYQQIPATAPKLLIYENNKRPSGISDRFSGSKSGTSATLAITGLQTGDEADYYCATWDGRVSVIGTGTNVIVLG
B3: CAP256-VRC26.05 (antibody, V domains shown)
VH: EVQLVESGGGVVQPGRSLRLSCAASHFSLSSYGMHWVRQAPGKGLEWVTGISFAGTKTYYGDSVRGRFTVSRDISKNTLFLQMNSLRPDDTAMYYCARDQRYYECEEWASDYYDFGREQPCLDPRGVVGIFDLWGQGTMVTVSS
VL: QSALTQPPSVSAAPGQKVTISCSGNIGNNYVSWYQQVPGTAPKLLIYENNKRPSGIPDRFSGSKSGTSATLVITGLQTGDEADFYCGTWGGSLRTGGVLGTGTRVTVLG

Target: HIV-1 Env of PVO.04 (HIV-1)
Assay: cell-based or functional assay

Binder | neutralization IC50
B1 | > 50 µg/mL
B2 | 7.98 µg/mL
B3 | 44.4 µg/mL

Target: HIV-1 Env of KER2008.12 (HIV-1)
Assay: cell-based or functional assay

Binder | neutralization IC50
B1 | > 50 µg/mL
B2 | > 50 µg/mL
B3 | > 50 µg/mL

Target: HIV-1 Env of Q23.17 (HIV-1)
Assay: cell-based or functional assay

Binder | neutralization IC50
B1 | > 50 µg/mL
B2 | > 50 µg/mL
B3 | > 50 µg/mL

Target: HIV-1 Env of TH976.17 (HIV-1)
Assay: cell-based or functional assay

Binder | neutralization IC50
B1 | > 50 µg/mL
B2 | > 50 µg/mL
B3 | > 50 µg/mL

Target: HIV-1 Env of THRO.18 (HIV-1)
Assay: cell-based or functional assay

Binder | neutralization IC50
B1 | > 50 µg/mL
B2 | > 50 µg/mL
B3 | > 50 µg/mL

Target: HIV-1 Env of CNE3 (HIV-1)
Assay: cell-based or functional assay

Binder | neutralization IC50
B1 | > 50 µg/mL
B2 | > 50 µg/mL
B3 | > 50 µg/mL

Target: HIV-1 Env of MB539.2B7 (HIV-1)
Assay: cell-based or functional assay

Binder | neutralization IC50
B1 | > 50 µg/mL
B2 | > 50 µg/mL
B3 | > 50 µg/mL

Target: HIV-1 Env of Q842.d12 (HIV-1)
Assay: cell-based or functional assay

Binder | neutralization IC50
B1 | > 50 µg/mL
B2 | > 50 µg/mL
B3 | > 50 µg/mL

Target: HIV-1 Env of AC10.29 (HIV-1)
Assay: cell-based or functional assay

Binder | neutralization IC50
B1 | > 50 µg/mL
B2 | > 50 µg/mL
B3 | > 50 µg/mL

Target: HIV-1 Env of REJO.67 (HIV-1)
Assay: cell-based or functional assay

Binder | neutralization IC50
B1 | > 50 µg/mL
B2 | > 50 µg/mL
B3 | > 50 µg/mL

Target: HIV-1 Env of 191821.E6.1 (HIV-1)
Assay: cell-based or functional assay

Binder | neutralization IC50
B1 | > 50 µg/mL
B2 | > 50 µg/mL
B3 | > 50 µg/mL

Target: HIV-1 Env of MB201 (HIV-1)
Assay: cell-based or functional assay

Binder | neutralization IC50
B1 | > 50 µg/mL
B2 | > 50 µg/mL
B3 | > 50 µg/mL

Target: HIV-1 Env of ZM249.1 (HIV-1)
Assay: cell-based or functional assay

Binder | neutralization IC50
B1 | 0.039 µg/mL
B2 | > 50 µg/mL
B3 | > 50 µg/mL

Target: HIV-1 Env of ZM214.15 (HIV-1)
Assay: cell-based or functional assay

Binder | neutralization IC50
B1 | 1.5 µg/mL
B2 | > 50 µg/mL
B3 | > 50 µg/mL

Target: HIV-1 Env of DU172.17 (HIV-1)
Assay: cell-based or functional assay

Binder | neutralization IC50
B1 | > 50 µg/mL
B2 | > 50 µg/mL
B3 | > 50 µg/mL

Target: HIV-1 Env of TRO.11 (HIV-1)
Assay: cell-based or functional assay

Binder | neutralization IC50
B1 | > 50 µg/mL
B2 | > 50 µg/mL
B3 | > 50 µg/mL

Target: HIV-1 Env of ZM197.7 (HIV-1)
Assay: cell-based or functional assay

Binder | neutralization IC50
B1 | 0.16 µg/mL
B2 | 1.97 µg/mL
B3 | 0.113 µg/mL

Target: HIV-1 Env of CAP244.D3 (HIV-1)
Assay: cell-based or functional assay

Binder | neutralization IC50
B1 | > 50 µg/mL
B2 | > 50 µg/mL
B3 | > 50 µg/mL

Target: HIV-1 Env of 96ZM651.02 (HIV-1)
Assay: cell-based or functional assay

Binder | neutralization IC50
B1 | > 50 µg/mL
B2 | > 50 µg/mL
B3 | > 50 µg/mL

Target: HIV-1 Env of RW020.2 (HIV-1)
Assay: cell-based or functional assay

Binder | neutralization IC50
B1 | > 50 µg/mL
B2 | > 50 µg/mL
B3 | > 50 µg/mL

Target: HIV-1 Env of C1080.c3 (HIV-1)
Assay: cell-based or functional assay

Binder | neutralization IC50
B1 | 0.119 µg/mL
B2 | > 50 µg/mL
B3 | > 50 µg/mL

Target: HIV-1 Env of DU156.12 (HIV-1)
Assay: cell-based or functional assay

Binder | neutralization IC50
B1 | 0.117 µg/mL
B2 | > 50 µg/mL
B3 | > 50 µg/mL

Target: HIV-1 Env of TRJO.58 (HIV-1)
Assay: cell-based or functional assay

Binder | neutralization IC50
B1 | > 50 µg/mL
B2 | > 50 µg/mL
B3 | > 50 µg/mL

Target: HIV-1 Env of ZM109.4 (HIV-1)
Assay: cell-based or functional assay

Binder | neutralization IC50
B1 | > 50 µg/mL
B2 | > 50 µg/mL
B3 | 26.5 µg/mL

Target: HIV-1 Env of ZM53.12 (HIV-1)
Assay: cell-based or functional assay

Binder | neutralization IC50
B1 | 0.008 µg/mL
B2 | 0.043 µg/mL
B3 | 0.012 µg/mL

Target: HIV-1 Env of CAP256.PI (HIV-1)
Assay: cell-based or functional assay

Binder | neutralization IC50
B1 | > 50 µg/mL
B2 | > 50 µg/mL
B3 | > 50 µg/mL

Target: HIV-1 Env of CAP45.G3 (HIV-1)
Assay: cell-based or functional assay

Binder | neutralization IC50
B1 | 10.7 µg/mL
B2 | > 50 µg/mL
B3 | > 50 µg/mL

Target: HIV-1 Env of BG505.w6m (HIV-1)
Assay: cell-based or functional assay

Binder | neutralization IC50
B1 | 4.76 µg/mL
B2 | > 50 µg/mL
B3 | > 50 µg/mL

Target: HIV-1 Env of DU422.01 (HIV-1)
Assay: cell-based or functional assay

Binder | neutralization IC50
B1 | 0.134 µg/mL
B2 | > 50 µg/mL
B3 | > 50 µg/mL

Target: HIV-1 Env of CAP210.E8 (HIV-1)
Assay: cell-based or functional assay

Binder | neutralization IC50
B1 | 0.011 µg/mL
B2 | 0.062 µg/mL
B3 | 0.013 µg/mL

Target: HIV-1 Env of ZM233.6 (HIV-1)
Assay: cell-based or functional assay

Binder | neutralization IC50
B1 | 0.032 µg/mL
B2 | 0.701 µg/mL
B3 | 0.003 µg/mL

Target: HIV-1 Env of KER2018.11 (HIV-1)
Assay: cell-based or functional assay

Binder | neutralization IC50
B1 | 0.003 µg/mL
B2 | 0.18 µg/mL
B3 | 0.012 µg/mL

Target: HIV-1 Env of 6405.v4.c34 (HIV-1)
Assay: cell-based or functional assay

Binder | neutralization IC50
B1 | > 50 µg/mL
B2 | > 50 µg/mL
B3 | > 50 µg/mL

Target: HIV-1 Env of CM244.ec1 (HIV-1)
Assay: cell-based or functional assay

Binder | neutralization IC50
B1 | 0.003 µg/mL
B2 | 2.03 µg/mL
B3 | 0.517 µg/mL

Target: HIV-1 Env of CAP256.SU (HIV-1)
Assay: cell-based or functional assay

Binder | neutralization IC50
B1 | 0.004 µg/mL
B2 | 0.015 µg/mL
B3 | 0.007 µg/mL

Target: HIV-1 Env of 6535.3 (HIV-1)
Assay: cell-based or functional assay

Binder | neutralization IC50
B1 | > 50 µg/mL
B2 | > 50 µg/mL
B3 | > 50 µg/mL

Target: HIV-1 Env of CAAN.A2 (HIV-1)
Assay: cell-based or functional assay

Binder | neutralization IC50
B1 | > 50 µg/mL
B2 | > 50 µg/mL
B3 | > 50 µg/mL

Target: HIV-1 Env of QH0692.42 (HIV-1)
Assay: cell-based or functional assay

Binder | neutralization IC50
B1 | > 50 µg/mL
B2 | > 50 µg/mL
B3 | > 50 µg/mL

Target: HIV-1 Env of 3016.V5.c36 (HIV-1)
Assay: cell-based or functional assay

Binder | neutralization IC50
B1 | 0.118 µg/mL
B2 | 0.057 µg/mL
B3 | 0.011 µg/mL

Target: HIV-1 Env of ZM135.10a (HIV-1)
Assay: cell-based or functional assay

Binder | neutralization IC50
B1 | > 50 µg/mL
B2 | > 50 µg/mL
B3 | > 50 µg/mL

Target: HIV-1 Env of 0260.v5.c36 (HIV-1)
Assay: cell-based or functional assay

Binder | neutralization IC50
B1 | > 50 µg/mL
B2 | > 50 µg/mL
B3 | > 50 µg/mL

Target: HIV-1 Env of UG037.8 (HIV-1)
Assay: cell-based or functional assay

Binder | neutralization IC50
B1 | > 50 µg/mL
B2 | > 50 µg/mL
B3 | > 50 µg/mL

Target: HIV-1 Env of SC422.8 (HIV-1)
Assay: cell-based or functional assay

Binder | neutralization IC50
B1 | > 50 µg/mL
B2 | > 50 µg/mL
B3 | > 50 µg/mL

Target: HIV-1 Env of WITO.33 (HIV-1)
Assay: cell-based or functional assay

Binder | neutralization IC50
B1 | > 50 µg/mL
B2 | > 50 µg/mL
B3 | > 50 µg/mL

Target: HIV-1 Env of Q259.d2.17 (HIV-1)
Assay: cell-based or functional assay

Binder | neutralization IC50
B1 | 0.014 µg/mL
B2 | > 50 µg/mL
B3 | 0.023 µg/mL

Target: HIV-1 Env of Q461.e2 (HIV-1)
Assay: cell-based or functional assay

Binder | neutralization IC50
B1 | > 50 µg/mL
B2 | > 50 µg/mL
B3 | > 50 µg/mL

Target: HIV-1 Env of RHPA.7 (HIV-1)
Assay: cell-based or functional assay

Binder | neutralization IC50
B1 | > 50 µg/mL
B2 | > 50 µg/mL
B3 | > 50 µg/mL

Target: HIV-1 Env of Q168.a2 (HIV-1)
Assay: cell-based or functional assay

Binder | neutralization IC50
B1 | > 50 µg/mL
B2 | > 50 µg/mL
B3 | > 50 µg/mL

Target: HIV-1 Env of Q769.d22 (HIV-1)
Assay: cell-based or functional assay

Binder | neutralization IC50
B1 | > 50 µg/mL
B2 | > 50 µg/mL
B3 | > 50 µg/mL
